Test results as given in ChEMBL document CHEMBL3871290, “3-Cyano-6-(5-methyl-3-pyrazoloamino) pyridines (Part 2): A dual inhibitor of Aurora kinase and tubulin polymerization” (Bioorg Med Chem Lett, 2016).

Experiments:
Details in all cases: Homo sapiens
[1] = substrate: Cc1ccc(OCCNc2nc(Nc3cc(C)[nH]n3)cc(C)c2C#N)cn1
Description: Activity at LYN (unknown origin)

[2] = substrate: Cc1ccc(OCCNc2nc(Nc3cc(C)[nH]n3)cc(C)c2C#N)cn1; remark: listed apart in the source
Description: Activity at Aurora 2 kinase (unknown origin)

[3] = substrate: Cc1ccc(OCCNc2nc(Nc3cc(C)[nH]n3)cc(C)c2C#N)cn1; remark: listed apart in the source
Description: Activity at Aurora 1 kinase (unknown origin)

B1: Tyrosine-protein kinase Lyn (Homo sapiens), P07948 (protein)
chain: MGCIKSKGKDSLSDDGVDLKTQPVRNTERTIYVRDPTSNKQQRPVPESQLLPGQRFQTKDPEEQGDIVVALYPYDGIHPDDLSFKKGEKMKVLEEHGEWWKAKSLLTKKEGFIPSNYVAKLNTLETEEWFFKDITRKDAERQLLAPGNSAGAFLIRESETLKGSFSLSVRDFDPVHGDVIKHYKIRSLDNGGYYISPRITFPCISDMIKHYQKQADGLCRRLEKACISPKPQKPWDKDAWEIPRESIKLVKRLGAGQFGEVWMGYYNNSTKVAVKTLKPGTMSVQAFLEEANLMKTLQHDKLVRLYAVVTREEPIYIITEYMAKGSLLDFLKSDEGGKVLLPKLIDFSAQIAEGMAYIERKNYIHRDLRAANVLVSESLMCKIADFGLARVIEDNEYTAREGAKFPIKWTAPEAINFGCFTIKSDVWSFGILLYEIVTYGKIPYPGRTNADVMTALSQGYRMPRVENCPDELYDIMKMCWKEKAEERPTFDYLQSVLDDFYTATEGQYQQQP
Km [1]: 1000 µM

B2: Aurora kinase A (Homo sapiens), O14965 (protein)
chain: MDRSKENCISGPVKATAPVGGPKRVLVTQQFPCQNPLPVNSGQAQRVLCPSNSSQRIPLQAQKLVSSHKPVQNQKQKQLQATSVPHPVSRPLNNTQKSKQPLPSAPENNPEEELASKQKNEESKKRQWALEDFEIGRPLGKGKFGNVYLAREKQSKFILALKVLFKAQLEKAGVEHQLRREVEIQSHLRHPNILRLYGYFHDATRVYLILEYAPLGTVYRELQKLSKFDEQRTATYITELANALSYCHSKRVIHRDIKPENLLLGSAGELKIADFGWSVHAPSSRRTTLCGTLDYLPPEMIEGRMHDEKVDLWSLGVLCYEFLVGKPPFEANTYQETYKRISRVEFTFPDFVTEGARDLISRLLKHNPSQRPMLREVLEHPWITANSSKPSNCQNKESASKQS
Km [2]: 28 µM

B3: Aurora kinase B (Homo sapiens), Q96GD4 (protein)
chain: MAQKENSYPWPYGRQTAPSGLSTLPQRVLRKEPVTPSALVLMSRSNVQPTAAPGQKVMENSSGTPDILTRHFTIDDFEIGRPLGKGKFGNVYLAREKKSHFIVALKVLFKSQIEKEGVEHQLRREIEIQAHLHHPNILRLYNYFYDRRRIYLILEYAPRGELYKELQKSCTFDEQRTATIMEELADALMYCHGKKVIHRDIKPENLLLGLKGELKIADFGWSVHAPSLRRKTMCGTLDYLPPEMIEGRMHNEKVDLWCIGVLCYELLVGNPPFESASHNETYRRIVKVDLKFPASVPMGAQDLISKLLRHNPSERLPLAQVSAHPWVRANSRRVLPPSALQSVA
Km [3]: 30 µM
